Assay [1] concerns the target T1, SARS-CoV-2 spike protein on pseudotyped lentivirus (Wuhan Reference Pseudovirus) (SARS-CoV-2, UniProt P0DTC2 14-1273). The experiment in a line: cell-based or functional assay.
Assay [2] concerns the target T2, SARS-CoV-2 Delta Variant RBD (SARS-CoV-2 Delta variant).
T2 construct: domain: RBD; coated on ELISA plates
The experiment in a line: ELISA, RBD coated.

For assay [3], the target named is T3, SARS-CoV-2 Gamma Variant RBD (SARS-CoV-2 Gamma variant).
T3 construct: domain: RBD; coated on ELISA plates
The experiment in a line: ELISA, RBD coated.

Assay [4] addresses T4, SARS-CoV-2 Beta Variant RBD (SARS-CoV-2 Beta variant).
T4 construct: domain: RBD; coated on ELISA plates
The experiment in a line: ELISA, RBD coated. (ELISA stands for enzyme-linked immunosorbent assay.)

Assay [5] addresses T5, SARS-CoV-2 Alpha Variant RBD (SARS-CoV-2 Alpha variant).
T5 construct: domain: RBD; coated on ELISA plates
The experiment in a line: ELISA, RBD coated.

Assay [6] deals with T1, SARS-CoV-2 spike protein on pseudotyped …. The experiment in a line: cell-based or functional assay. This is another data set of the same source.
Assay [7] has the same target. The experiment in a line: cell-based or functional assay. This is another data set of the same source.

Broadly, the EC50 is the concentration giving half of the maximal effect. Low readings indicate an effect from little substance, high ones a need for much substance.

Where “and” joins values, the source holds several entries; their conditions need not be identical. Identical values can stand only once.

B1: PP1095 MBP-5HVZ-PAPA-RN-2-H6 (VHH)
VHH: QVQLVESGGGLVQPGGSLRLSCAASGSYFSKNAVHWYRQAPGKGREWVAALTNSGSGNYKDSVKGRFTISRDNAKNTVYLQMNSLKPEDTAVYYCTANISESTGQGYDYWGQGTQVTVSS
In the case of B1, the “infectivity % under 10 ug/mL VHH treatment” value (from here on “infectivity %”) in assay [1] worked out at 76.8%. Besides, the EC50 in assay [2] is 16.9 nM; in assay [3], 90.9 nM; in assay [4], 193 nM; in assay [5] it was 1.18 nM.

B2: PP930 MBP-5HVZ-R2b-D4-H6 (VHH)
VHH: QVQLVESGGGLVQPGGSLRLSCAASGSYASIASMHWFRQAPGKQREFVAGLTSGGSRIYGDSVKGRFTISRDNAKNTVYLQMNSLKPEDTAVYYCTALILHYAGMYDYWGQGTQVTVSS
notes: Form: Dimer
Regarding B2, the “infectivity %” value in assay [1] is 35.6%. Besides, the EC50 was 21.1 nM in assay [2], 10.2 nM in assay [3], 13 nM in assay [4] and 3.9 nM in assay [5].

B3: PP1134 MBP-4B0F-PAPA-R2d-D3-H6 (VHH)
VHH: QVQLVESGGGLVQPGGSLRLSCAASGHIFSINNAAWVRQAPGKSREGVATIHSGGGTYYSDSVKGRFTISRDNAKNTVYLQMNSLKPEDTAVYYCNAEVSTGAGSRGRVSDVYWGQGTQVTVSS
notes: Form: Heptamer
B3: the “infectivity %” value in assay [1] turned out to be 10.9%. For the same molecule, in assay [6], the “Pseudovirus neutralization IC50” value came to 3.97 nM. Further, the “Pseudovirus inhibition IC50 [Cont. 1]” value in assay [7] was 5.99 nM.

B4: PP1158 MPB-scTRP-PAPA-R2d-D3-H6 (VHH)
VHH: B3 VHH
notes: Form: Trimer
As for B4, the “infectivity %” value in assay [1] turned out to be 28.8%. Also, the “Pseudovirus neutralization IC50” value in assay [6] turned out to be 27.4 nM. Besides, the “Pseudovirus inhibition IC50 [Cont. 1]” value in assay [7] amounted to 123 nM.

B5: PP1105 MBP-5HVZ-PAPA-RN-20-H6 (VHH)
VHH: QVQLVESGGGLVQPGGSLRLSCAASGNYFEINKMHWFRQAPGKQREFVATIGSGGSTAYADSVKGRFTISRDNAKNTVYLQMNSLKPEDTAVYYCNALIYLADRRDGYYSYDYWGQGTQVTVSS
notes: Form: Dimer
In the case of B5, the “infectivity %” value in assay [1] stood at 79.8%. Also, the EC50 amounted to 36.6 nM in assay [2], 15.4 nM in assay [3], 26.6 nM in assay [4] and 1.41 nM in assay [5].

B6: PP1144 MBP-5HVZ-PAPA-R2c-F6-H6 (VHH)
VHH: QVQLVESGGGLVQPGGSLRLSCAASGRILAANIVHWYRQAPGKEREGVAGITTGGSNYYSDSVKGRFTISRDNAKNTVYLQMNSLKPEDTAVYYCNALGLGSASGSYESWGQGTQVTVSS
notes: Form: Dimer
On to B6, for which the “infectivity %” value in assay [1] came to 9.18%. In addition, in assay [6], the “Pseudovirus neutralization IC50” value amounted to 11.9 nM. Moreover, the “Pseudovirus inhibition IC50 [Cont. 1]” value in assay [7] was found to be 2.75 nM.

B7: PP1156 MPB-scTRP-PAPA-R2c-F6-H6 (VHH)
VHH: B6 VHH
notes: Form: Trimer
With B7, the “infectivity %” value in assay [1] was found to be 18.1%. Besides, the “Pseudovirus neutralization IC50” value in assay [6] is 36.8 nM. The “Pseudovirus inhibition IC50 [Cont. 1]” value in assay [7] is 63.8 nM.

B8: PP1132 MBP-4B0F-PAPA-R2c-F6-H6 (VHH)
VHH: B6 VHH
notes: Form: Heptamer
B8: the “infectivity %” value in assay [1] turned out to be 2.65%. Besides, the “Pseudovirus neutralization IC50” value in assay [6] stood at 4.14 nM. Besides, the “Pseudovirus inhibition IC50 [Cont. 1]” value in assay [7] came out at 5.66 nM.

B9: PP1145 MBP-5HVZ-PAPA-R2d-A6-H6 (VHH)
VHH: QVQLVESGGGLVQPGGSLRLSCAASGSGASIGAMHWFRQAPGKGREWVASITSAGNTYYGDSVKGRFTISRDNAKNTVYLQMNSLKPEDTAVYYCNALAGANYESQWEEYNYWGQGTQVTVSS
notes: Form: Dimer
For B9, in assay [1], the “infectivity %” value worked out at 65.2%. For the same molecule, the “Pseudovirus neutralization IC50” value in assay [6] is 146 nM. In addition, the 50% effective concentration (EC50) in assay [2] came to 89 nM; in assay [3], 5.49 nM; in assay [4], 30.9 nM; in assay [5] it was 1.94 nM.

B10: PP1157 MPB-scTRP-PAPA-R2d-A6-H6 (VHH)
VHH: B9 VHH
notes: Form: Trimer
With B10, in assay [1], the “infectivity %” value worked out at 32.9%. The “Pseudovirus neutralization IC50” value in assay [6] is 18.9 nM and 19.8 nM. Besides, the “Pseudovirus inhibition IC50 [Cont. 1]” value in assay [7] is 54.4 nM.

B11: PP1133 MBP-4B0F-PAPA-R2d-A6-H6 (VHH)
VHH: B9 VHH
notes: Form: Heptamer
With B11, the “infectivity %” value in assay [1] was 48.1%. In assay [6], the “Pseudovirus neutralization IC50” value worked out at 186 nM. In addition, in assay [7], the “Pseudovirus inhibition IC50 [Cont. 1]” value was 180 nM.

B12: PP1154 MBP-5HVZ-PAPA-R5d-G1-H6 (VHH)
VHH: QVQLVESGGGLVQPGGSLRLSCAASGSIFGINDVHWFRQAPGKEREFVATITNGLSARYKDSVKGRFTISRDNAKNTVYLQMNSLKPEDTAVYYCAAQVYITTYELYDYWGQGTQVTVSS
notes: Form: Dimer
For B12, the “infectivity %” value in assay [1] came to 53.2%. The “Pseudovirus neutralization IC50” value in assay [6] was 272 nM. Also, the concentration giving a half-maximal response (EC50) in assay [2] is 221 nM; in assay [3], 15.8 nM; in assay [4] it was 24.7 nM; in assay [5], 2.37 nM.

B13: PP1101 MBP-5HVZ-PAPA-RN-16-H6 (VHH)
VHH: QVQLVESGGGLVQPGGSLRLSCAASGADFSSNAMHWFRQAPGKAREFVASIDSDKSGYYADSVKGRFTISRDNAKNTVYLQMNSLKPEDTAVYYCNAYSGTDNYGYDYWGQGTQVTVSS
notes: Form: Dimer
As for B13, the “infectivity %” value in assay [1] was 91.8%. Moreover, the EC50 in assay [2] came out at 42.6 nM; in assay [3], 51.5 nM; in assay [4], 115 nM; in assay [5] it was 1.77 nM.

B14: PP931 MBP-5HVZ-R5a-F5-H6 (VHH)
VHH: QVQLVESGGGLVQPGGSLRLSCAASGYHASILAMHWVRQAPGKEREWVASMTWSDMTQYSDSVKGRFTISRDNAKNTVYLQMNSLKPEDTAVYYCAATYVTRDRPWTHWGQGTQVTVSS
notes: Form: Dimer
For the molecule B14, the “infectivity %” value in assay [1] came out at 57.5%. In addition, the EC50 in assay [2] turned out to be 127 nM; in assay [3] it was 110 nM; in assay [4], 134 nM; in assay [5], 2.07 nM.

B15: PP1104 MBP-5HVZ-PAPA-RN-19-H6 (VHH)
VHH: QVQLVESGGGLVQPGGSLRLSCAASGIDDSIGAMHWFRQAPGKGREFVAALSGTGTTSYADSVKGRFTISRDNAKNTVYLQMNSLKPEDTAVYYCAAAFPAGGDYWGQGTQVTVSS
notes: Form: Dimer
On to B15, for which, in assay [1], the “infectivity %” value stood at 73.8%. Further, the EC50 was determined as 295 nM in assay [2], 29.5 nM in assay [3], 44.9 nM in assay [4] and 1.09 nM in assay [5].

B16: PP1094 MBP-5HVZ-PAPA-RN-1-H6 (VHH)
VHH: QVQLVESGGGLVQPGGSLRLSCAASGYIFEGGPTAWFRQAPGKGREFVAAITTSGETSYAYSVKGRFTISRDNAKNTVYLQMNSLKPEDTAVYYCNATDRDETGYDYWGQGTQVTVSS
On to B16, for which the “infectivity %” value in assay [1] was determined as 83.4%. Also, the concentration for a half-maximal effect (EC50) in assay [2] stood at 49.9 nM; in assay [3], 160 nM; in assay [4] it was 315 nM; in assay [5] it was 0.89 nM.

(Values after patent US20240150440A1 (LUMEN BIOSCIENCE, published 2024).)
